Reference: patent US20230374534A1 (INDUSTRY ACADEMIC COOPERATION FOUNDATION GYEONGSANG …, published 2023)

Key:
[1] = target: T1, YC-CBF1 (CBF1 fused to the C-terminal fragment of YFP) (Arabidopsis thaliana, UniProt P93835 1-213); assay: BiFC in Nicotiana benthamiana leaves at 4 °C (FIG. 6D)
T1 construct: BiFC construct expressed in Nicotiana benthamiana leaves; also called YC-CBFs; not shown: C-terminal fragment of YFP (YC)
Protocol: Interaction between Trx-h2 and CBFs under specific conditions was analyzed using the BiFC assay. Trx-h2 and CBFs were cloned individually into the gateway BiFC-binary vector, pDONR221, to generate pDONR221: Trx-h2 and pDONR221: CBF plasmids, respectively. The Trx-h2-YN plasmid was generated by fusing Trx-h2 with the N-terminal fragment of YFP (YN), while the YC-CBF plasmids were constructed by fusing each of the three CBFs with the C-terminal fragment of YFP (YC). These plasmids were introduced into A. tumefaciens strain GV3101, and the transformed cells were used to infiltrate the leaves of 4-week-old N. benthamiana plants. These plants were incubated at 26° C. for 2 days and then exposed to 4° C. for 6 h. Fluorescence signals generated by YFP were analyzed under a confocal microscope using the FV10-ASW 3.1 software.

[2] = target: T2, CBF1-Myc (from CBF1-Myc^OE Arabidopsis plants) (Arabidopsis thaliana, UniProt P93835 1-213); assay: anti-Myc immunoprecipitation from CBF1-Myc^OE plants (4 °C, 6 h), then MALDI-TOF/TOF mass spectrometry
T2 construct: Overexpressed in Arabidopsis under the CaMV 35S promoter; The tag is placed C-terminal because of the name CBF1-Myc; also called CBF-Myc; CBFs-Myc; not shown: Myc tag
T2 sequence (P93835 whole entry): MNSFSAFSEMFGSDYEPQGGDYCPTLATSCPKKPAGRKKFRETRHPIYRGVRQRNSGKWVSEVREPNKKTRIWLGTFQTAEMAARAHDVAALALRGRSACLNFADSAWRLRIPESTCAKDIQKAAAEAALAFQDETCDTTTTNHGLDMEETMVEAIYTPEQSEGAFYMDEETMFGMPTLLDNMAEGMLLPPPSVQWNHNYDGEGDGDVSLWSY
Protocol: To identify the interacting partners of CBF1 in Arabidopsis, total proteins (100 mg) were extracted from 2-week-old CBF1-Myc^OE seedlings exposed to 4° C. for 6 h, and immunoprecipitated using an anti-Myc agarose (Sigma-Aldrich, St. Louis, MO, USA). The CBF1-My c-interacting proteins were washed three times at 4° C. with a buffer containing 50 mM Tris-HCl (pH 7.5), 150 mM NaCl, 1 mM EDTA, 1 mM DTT, and 0.1% NP40. The purified proteins were mixed with SDS-PAGE loading dye, heated at 90° C. for 5 min, and separated by SDS-PAGE. Proteins were identified by matrix assisted laser desorption/ionization-time of flight (MALDI-TOF)/TOF-mass spectrometry.

T1 sequence (P93835 whole entry, the tested form may be a part): as the sequence (P93835 whole entry) above

| binding result [1] | binding result [2] | Binder |
| --- | --- | --- |
| no binding |  | Trx-h3 (control) in the BiFC assay (enzyme, Arabidopsis, UniProt Q42403 2-118, looked up, BiFC control; The YFP fragment fused to it is not described) AAEGEVIACHTVEDWTEKLKAANESKKLIVIDFTATWCPPCRFIAPVFADLAKKHLDVVFFKVDVDELNTVAEEFKVQAMPTFIFMKEGEIKETVVGAAKEEIIANLEKHKTVVAAA |
|  | binds | Trx-h2, endogenous protein in Arabidopsis plants (enzyme, myristoylated at Gly2 at 22 °C; demyristoylated at 4 °C, Native Trx-h2 that co-precipitated with CBF-Myc from plant extracts (IP/mass spectrometry and Co-IP); also called thioredoxin h2) GGALSTVFGSGEDATAAGTESEPSRVLKFSSSARWQLHFNEIKESNKLLVVDFSASWCGPCRMIEPAIHAMADKFNDVDFVKLDVDELPDVAKEFNVTAMPTFVLVKRGKEIERIIGAKKDELEKKVSKLRA |
